Experimental data taken from the DeepSol protein solubility set.

Assay: soluble on expression in E. coli; label from the status in PepcDB or PDB records

Sequence | soluble on expression in E. coli
MSLADKVVNIGFSGPLSGGAAAYGKDTLSGLQMAVDTLNKSGGIKVGNDKVTFKVVSLDDRYLPNETATNVKRLTGQDIQFIFVPHAGGIQAVQPLAIRDPEFLLVAYSSEPKILAANNPLTFMLPPRYDNYAQPFVATEMKTFGKKLALVGTSSAYGKQWADLIESEWKKQGGTVGRDNAVDYNTTVDFSAAVTKALSEKPDVLFIGGPSQPTALVIKAAREQGFKGGFIVMDQAKFEQMETVIPKNYLDGSVGVLPTRDFPGTQSFVVQYQRAYKKIPTSEAGLNYMGMNVLAKAMELAGTTSDPRKVRAQLDAAAKALPQSKTVYKVFGVTPQATWTPSEGHHHHHH | soluble
MSLADPGREGHLEQRILQVLTEAGSPVKLAQLVKECQAPKRELNQVLYRMKKELKVSLTSPATWCLGGTDPEGEGPAELALSSPAERPQQHAATIPETPGPQFSQQREEDIYRFLKDNGPQRALVIAQALGMRTAKDVNRDLYRMKSRHLLDMDEQSKAWTIYRPEDSGRRAKSASIIYQHNPINMICQNGPNSWISIANSEAIQIGHGNIITRQTVSREGHHHHHH | not soluble
MSLAEVGSKSVLFVCLGNICRSPIAEAVFRKLVTDEKVSDNWAIDSSAVSDWNVGRPPDPRAVSCLRNHGISTAHKARQITKEDFATFDYILCMDESNLRDLNRKSNQVKNCKAKIELLGSYDPQKQLIIEDPYYGNDSDFEVVYQQCLRCCKAFLEKTYEGHHHHHH | soluble
MSLAFEPPRRLVRAFGETAPEGDDWLATLPEVAERAVARRGLTVERVQVPGGRSSLVVLVRTAEGAPAVLKLAPRRARPESERAALVHWGGRGAVQVREEGDEEGVLLLERLHPDVSVRSLPEAKALLEAAGTLRRLWVEPPGSHPFETVAERTGRQAEAMRAGAAADAQVAPLVDAALAARAELLGGPSEQRLLHGTFRQSKVLAGDRMPWLAVGPDPVVGESAFDLARLVRDRVEDLIAQPSGASTTRRRIKRLAESLEVDQERLRGWTLFRAVESGVRARRVGRERDAELLLEFAGWLEGHHHHHH | not soluble
MSLAGFVVTDVTVATCSILNPFSSCKSSAPWWTQVEKDLYLRTGWTSAAYIRFQRKKEEELLPADKVVIDLKISRLAPEVQDDPKEDKADWEQRPGGIWLKRTAKRHASDSHSAITSVDVLFGADAVDPRPGWEVKDTPILLDSRTESLEARITVRRGDPLKIKKPVPRINENGRFKIMQLADLHLSTGLGHCRDPVPPELIPGQGCEADPRTLDFIERLLDEEQPDLVILSGDQVNGETSRDAQSPLFKSVKLLVDRKIPYAAIFGNHDDEGNLDRHQSMAILEDLPYSLSSAGPEDIDGVGNYIVEVLGRGNTDHSALTLYLLDSHSYSPDERQFRGYDWIKPNQIRWFKTTAQGLKAKHQQYAYMHMNMAFIHIPLPEFAQRGNYFRGNWSEPSTAPGFNSGFKDALEEEGILFVGCGHDHANDYCALSKNEAQKPSLWMCYGGGAGFGGYGGYGGFIRRVRFFDFDMNPGRVVTYKRLEYGNTDARIDEMMIVDGGMVKGPDEGHHHHHH | soluble
MSLAGHQAMHYSRILPNIWLGSCPRQVEHVTIKLKHELGITAVMNFQTEWDIVQNSSGCNRYPEPMTPDTMIKLYREEGLAYIWMPTPDMSTEGRVQMLPQAVCLLHALLEKGHIVYVHCNAGVGRSTAAVCGWLQYVMGWNLRKVQYFLMAKRPAVYIDEEALARAQEDFFQKFGKVRSEGHHHHHH | soluble
MSLAILPPDSLETALSQAQQATQAALQAGKNRLQIEILLPDLNPMGLAAGYLPLFAELGSDLKVFFADAGSAALARREWGETAYSVRGVNERLTPIEASDRAIVIVAPTPVEVTAIEQMCLTAGDRPFIMLNPRLQDVAVVGIGYAGRQLRERFLNTLEPCYYLRPLAETVILWRCYPQAWQIWQYRETAPTCLAEFEQRPTSEDIERALSALGKPRAQSFLSRLSALLRALQSEGHHHHHH | soluble
MSLALRLIERDPYEHPERLRQLQQELEAFRGQLGDVGALDTVWRELQDAQEHDARGRSIAIARCYSLKNRHQDVMPYDSNRVVLRSGKDDYINASCVEGLSPYCPPLVATQAPLPGTAADFWLMVHEQKVSVIVMLVSEAEMEKQKVARYFPTERGQPMVHGALSLALSSVRSTETHVERVLSLQFRDQSLKRSLVHLHFPTWPELGLPDSPSNLLRFIQEVHAHYLHQRPLHTPIIVHCSSGVGRTGAFALLYAAVQEVEAGNGIPELPQLVRRMRQQRKHMLQEKLHLRFCYEAVVRHVEQVLQRHGEGHHHHHH | soluble
MSLALRSLIADARRLVVKVGSSLVTDDGRGLDQAAIARWAAQIAALRAAGKEVVLVSSGAIAEGMQRLGWTRRPKEIHELQAAAAVGQMGLAQVYESEFARHGIRTAQVLLTHGDLADRERYLNARSTLLTLLGLGVVPIINENDTVVTDEIKFGDNDTLGALVTNLIEGDALIILTDQRGLYTADPRKHPDARFVDEAQAGAPELEAMAGGAGSSIGKGGMLTKIVAAKRAAKSGAHTVIASGREADVLARLAGGEAIGTQLRAPTGRMAARKQWMIDHLQLRGRVVLDAGAVDKLTAGGKSLLPIGVTEVQGEFARGEVISCVDTAGREVARGLTNYSAAEARLIARKASSEIEAVLGYVSAAELVHRDNLVLLEGHHHHHH | soluble
MSLAMNKVPGYNIYIGGVFALKNKVAMSGANITHVLSVIRLRPKDDLFAGYQHHRIEVDDLDDENLLEHFPSAIKFIQSGLDAGGGVLVHWPLTASSAMGKSRSATVCIAYLLRRQRNALTPQSALALLRESRPLCEPNPGFMEQLNVYYQMGEGHHHHHH | not soluble
MSLANAIRRSIPKLNRALVLPAFRSFHDEFSSKIPLEDIRKQTKGKEQHVPSARSIAAKYQVFRDTDAPVILDVDEERQIHEAGLQQPEKIHDLPDMYSGINLSRGKTGVYEIEDLVTVLRLNSAINIFVCTVPKDIKYVDYMCIVTGRSVRHMRGMAEFVRKVFKMKRHPSDIIPKIEGESSSDWMALDLGNIALHIFSTKAREQYDLESLWSVGSEFDREYNKPSEELVQLFEKHTIYLDDLKPLKKEGHHHHHH | not soluble
MSLANIQEIAKLAGVSSATVSRVINNRDYVSEETRKRVQTIIDKLDYVPNINAVSLKKGATKLIGMVIPSFTDSLNVFLKSFTMMAQEHGYNVTLFMTRIDPDKELEALEMLRQKQIDALVLVIRSNDWKTIEHYTKYGPIVTWQRVESEKIPSVFMNQYDGYTLALEHLYAKGYRKFVNVYGNTTGLNTQSRMLAFKDFCARYELDPHEFRQFYGQGSRQDGEKIAHWWSETEHKPDAFLTPNDYFAAGLLTEARRLGYSVPEDFAICGFDNMEVAHLLDITTIHYPVNLQAENAFTLIMNQLFGSNLPLLDLDFHLVERKTTEGHHHHHH | soluble
MSLAQGDTEVPTLYLWKTGPWGRCMGDDCGPGGIQTRAVWCAHVEGWTTLHTNCKQAVRPSNQQNCFKVCDWHKELYDWRLGTWDRCQPVISKSLEKSRECVKGEEGIQVREIMCIQKDKDIPAEDIICEYFEPKPLLEQACLIPCQKDCMVSEFSPWSECSRTCGSGLQHRTRHVVAPPQYGGSGCPNLTEFQVCQSNPCEEDESLYSLQVGPWSACSVPHTRQARQARRRGKNKEREKERGKAVKDPEARELIKKKRNRNRQNRQENRYWDIQIGYQTRDVTCLNRTGKSADLSFCQQERLPMTFQSCVITKECQVSEWLEWSPCSKTCHDVTSPTGTRVRTRTITQFPIGSEKECPALEEKEPCVSQGDGAVLCATYGWRTTEWTECHVDPLLSQQDKRRANQTALCGGGVQTREIYCIQTNDNMLSHGNTEGHHHHHH | not soluble
MSLAQIKSLFATRLYHAPLSEHGPALDPAEFAASCYSIAEDDDAGQEWCEREGYPGYTSYASLTDLPWRFPIFADLVKSLDAHVAAFAEDLEFELDGKALRLEDIWINILPEGGVHGSHIHPHSVISGTTYVAMPEGTSALKLEDPRLPFMMAAPTRRKGAREELRTFRSVAPKVGDVLLWESWLRHEVPMNMAEEDRISVSFNYAWGEGHHHHHH | soluble
MSLAQISSLFVTRLYHAPLSDHGPAIDAEEMESSCYAIAEDDEAGQGWCEENGYPGYTSYASLTDLPWRFPIFADLVKSLDAHVAAFAEDLEFDLDGRALELEDLWINILPEGGSHASHIHPHSVISGTTYVSMPGGTSALKLEDPRHAMMMAAPARRKTARDELRQFIYVTPAVGDVLLWESWLRHEVPMNMSEDDRISVSFNYRWAEGHHHHHH | soluble
MSLAQWNKQDSIRLQELLNGDGELKINTEAVKSIHFDFQSDKDNIKGTPIMSEDKPWMKFLKDLPKNFGDTTKWVRPNFVRLTPYTPYTTWHEDPVNDPIFLKRKDSLTISWKLNIKLIPGLRNGYVILPAGMDQTVTPSNNPLIGGLDADKFLYESLTKRGRAIRRNRNRAKGWKIYQSYVPTRQDSILFPRISKVSEQDSLPKQDTLLIKKDSAIINQNSLLLKDKINGKDQTEGHHHHHH | soluble
MSLARNLKADKTKTIGVIVRDITGFDTSRTIRGVDDFCKGCDYNALIYNTDFDPETEAKSLEALYQMRVDGIIIASSGQNNTLISEYIDKGMPIVHFQLEHDGSEKNLILSDYRQAAFDATEYLIKLGHKRICFMTQDFKNVKSRNERYSGYVAALKKYDIVQDPALIQYWQRETGFDHSPKSVLESAAAPTAFFTQHLAITTELLTHLNQENITIPDDVSLIGFDDIPMAEFFKVPVTVIKQEPYIIGKEAAKLLLEKVNDKNRHSQKIMISCSITERQSCTEGHHHHHH | soluble
MSLASVDPYEHLNAWVSAIETSGVLVLATRGGKVAIDEMRGMCLYFDELPVIVLNGSDHPRPRLFSLLHEFVHVVLHTEGLCDVIADAHPSTQDRSLEARCNAIAAAVLMPADVVRARPEVIVRSETPSSWDYESLRPVAAHFGVSAEAFLRRLSTLGIVPVEVYRQRRAEFIAAHEDEAERARSAGGGNWYRNTVRDLGKGYVRAVTDAHRRRVIDSNTAAIYLDAKVSQIPKLAESAELRSVEGHHHHHH | not soluble
MSLATALVLGYSAFDLGLFSDKDPRLKLIKKAIRKDLEAMAADGVSWLVFTGSLGFEYWVLEVAQEMKTEYGFQLATIFAFETHGENWNEGNQMKLSRFKQVDFVKYAYPRYEHKGQLRDYQQFLLENTTSSYLFYDEENETKLAYFYQKMKNQEDYFIKRLTFDQLNELAENFSENEGHHHHHH | soluble
